Consider one molecule from patent publication US20170022281A1 (AbbVie / Abbott, published 2017).

Experiment [1] has as its target T1, human PRLR (Biacore antigen) (human, UniProt P16471 25-234, limits assumed).
T1 construct: The construct injected over captured antibody is not described (a soluble form is likely); also called huPRLR
T1 sequence: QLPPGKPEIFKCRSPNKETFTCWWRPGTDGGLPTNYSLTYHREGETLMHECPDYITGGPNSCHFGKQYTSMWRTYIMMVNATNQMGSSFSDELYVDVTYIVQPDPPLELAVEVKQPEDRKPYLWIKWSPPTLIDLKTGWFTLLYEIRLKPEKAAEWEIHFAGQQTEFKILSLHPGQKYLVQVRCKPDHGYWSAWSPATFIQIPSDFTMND
Briefly: SPR simultaneous binding; PRLR held by surface mAb Ab30. The essentials:
(§1)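 First test mAb was captured on an anti-human IgG CM5 surface, blocked with 50 ug/ml isotype control, exposed to PRLR or buffer alone, and then probed with a second test mAb at 10 ug/ml. Run at 12° C on Biacore T200 in HBS-EP+ pH7.4; glycine pH1.5 regeneration.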

The target of experiment [2] is T1, human PRLR (Biacore antigen). The experiment in a line: SPR simultaneous binding; PRLR held by surface mAb Ab49. The essentials:
as §1

Experiment [3] deals with cyno PRLR on Baf3-cyPRLR cells (cyno). The experiment in a line: cell-based or functional assay.
Experiment [4] has as its target T1, human PRLR (Biacore antigen). The experiment in a line: SPR simultaneous binding; PRLR held by surface mAb Ab21. The essentials:
as §1

Experiment [5] has as its target T2, human PRLR ECD-Fc fusion protein (human, UniProt P16471 25-233).
T2 construct: not shown: Fc region (captured by goat anti-human Fc)
T2 sequence: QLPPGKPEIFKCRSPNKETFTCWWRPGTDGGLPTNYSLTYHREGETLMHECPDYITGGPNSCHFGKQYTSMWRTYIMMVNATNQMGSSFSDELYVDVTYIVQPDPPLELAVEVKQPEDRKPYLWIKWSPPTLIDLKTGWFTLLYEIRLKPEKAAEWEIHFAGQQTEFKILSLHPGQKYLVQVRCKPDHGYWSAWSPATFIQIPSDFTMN
Briefly: ELISA on ECD. The essentials: (§2)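 PRLR was captured on blocked plates for 1 h, then incubated 1 h with serial antibody dilutions in PBS pH 7.4/0.05% Tween 20 containing 10% Superblock. HRP secondary and TMB gave signal read at 450 nm, and EC50 came from curve fitting.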
Background: ELISA stands for enzyme-linked immunosorbent assay.

Experiment [6] deals with T3, cyno PRLR ECD-his6 protein (cyno).
T3 chain: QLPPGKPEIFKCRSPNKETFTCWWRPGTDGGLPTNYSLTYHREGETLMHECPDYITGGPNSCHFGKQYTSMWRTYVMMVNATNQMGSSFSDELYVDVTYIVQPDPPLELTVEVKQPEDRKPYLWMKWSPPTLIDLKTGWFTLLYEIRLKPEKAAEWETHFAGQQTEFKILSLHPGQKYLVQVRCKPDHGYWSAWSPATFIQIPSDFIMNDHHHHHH
Briefly: ELISA on ECD. The essentials:
as §2

Experiment [7] concerns the target T1, human PRLR (Biacore antigen). The experiment in a line: SPR simultaneous binding; PRLR held by surface mAb Ab48. The method, boiled down: as §1
Experiment [8] has the same target. Briefly: SPR simultaneous binding; PRLR held by surface mAb Ab39. The method, boiled down:
as §1

Experiment [9] has the same target. The experiment in a line: SPR simultaneous binding; PRLR held by surface mAb Ab19. The essentials:
as §1

Experiment [10] shares this target. The experiment in a line: SPR simultaneous binding; PRLR held by surface mAb chAb5. The method, boiled down:
as §1

The target is the same in experiment [11]. The experiment in a line: SPR Biacore. The essentials: (§3)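 Association rate, dissociation rate and dissociation constant were measured by surface plasmon resonance on a Biacore instrument. PRLR antigen was tested at 600 nM, 66.67 nM and 7.41 nM, a 3-point, 9-fold dilution series. Constants came from a 1:1 binding model fit (local Rmax, mass-transport term included) in Biacore T200 Evaluation Software.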
In general terms: Surface plasmon resonance follows binding to a sensor surface in real time, without labels.

Experiment [12] addresses T4, murine PRLR (Biacore antigen) (murine, UniProt Q08501 20-229, limits assumed).
T4 construct: also called muPRLR
T4 sequence (looked up): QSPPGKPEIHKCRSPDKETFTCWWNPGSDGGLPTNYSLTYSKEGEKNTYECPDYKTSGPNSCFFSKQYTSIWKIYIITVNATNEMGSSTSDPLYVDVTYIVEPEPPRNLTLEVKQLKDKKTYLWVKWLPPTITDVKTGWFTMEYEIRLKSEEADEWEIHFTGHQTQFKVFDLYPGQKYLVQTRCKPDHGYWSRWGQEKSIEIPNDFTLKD
Briefly: SPR Biacore. The method, boiled down: as §3

In experiment [13] the target is T5, cyno PRLR (Biacore antigen) (cyno, UniProt A0A2K5WXK1 25-234).
T5 construct: also called cyPRLR
T5 sequence: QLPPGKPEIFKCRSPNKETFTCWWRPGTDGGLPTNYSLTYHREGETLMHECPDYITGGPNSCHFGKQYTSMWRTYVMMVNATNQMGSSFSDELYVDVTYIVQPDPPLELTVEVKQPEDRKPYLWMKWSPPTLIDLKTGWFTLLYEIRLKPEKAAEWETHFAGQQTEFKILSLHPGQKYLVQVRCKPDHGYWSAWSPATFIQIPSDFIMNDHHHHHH
Briefly: SPR Biacore. The essentials:
as §3

B1: chAb7 (antibody, human IgG1, kappa, V domains shown)
VH: QVQLQQPGAELVMPGTSVKLSCKASGYTFTSYWIHWVKQRPGQGLEWIGEIDPSDSYTNYNQKFKGKATLTVDRSSSTAYMQLSSLTSEDSAVYYCGRSFFTNWFAYWGQGTLVTVSA
VL: DVVMTQTPLSLPVSLGDQASISCRSSQSLVHSNGNTYLHWYLQKPGQSPKLLIYKVSNRFSGVPDRFSGSGSGTDFTLKINRVEAEDLGVYFCSQSTHVPFTFGSGTKLEIKT
notes: chimeric, murine variable and human G1/kappa constant regions
Turning to B1, the “solution mAb binding, % of PRLR binding” value in [1] was -1%; in [2], 2%; in experiment [4], -1%; in experiment [7] it was 1%; in [8], -2%; in experiment [9], -1%. Also, the “solution mAb binding, % of PRLR binding” value in [10] was -1%. Moreover, the “Baf3-cyPRLR proliferation IC50” value in experiment [3] came out at 1.9 µg/mL. The figures for the EC50 in experiment [5] and in [6] were 0.151 nM and 0.118 nM, respectively. Further, the Kd in experiment [11] came to 0.18 nM; in [12] it was 44.9 nM; in experiment [13] it was 0.154 nM. The koff in experiment [11] came to 4.46e-05 s⁻¹; in [12], 0.00357 s⁻¹; in experiment [13], 3.61e-05 s⁻¹. The kon in [11] was found to be 248000 M⁻¹ s⁻¹; in experiment [12], 79500 M⁻¹ s⁻¹; in [13] it was 235000 M⁻¹ s⁻¹.

Broadly, the EC50 is the concentration that produces a half-maximal response. Usually Kd stands for the constant that tells how readily two partners part at equilibrium. A higher Kd goes with lower affinity. The koff is the first-order rate constant of dissociation. A lower koff goes with slow dissociation. The term kon denotes a measure of how fast the partners come together.
